# Laboratory results as given in patent US20200347143A1 (GLENMARK PHARMACEUTICALS S A, published 2020).
# Target: T1, chiOX40R HHRH-Fc (human/rat chimera; human)
# T1 construct: also called chiOX40R-Fc HHRH; chiOX40R OX40 HHRH-Fc
# Experiment: SPR, chimera immobilised (3000 RU), fragment injected at 200 nM
# Experimental: A second injection was then performed using HBS-EP buffer for 3 min followed by 5 min of dissociation. Regeneration between the injections was done using glycine pH1.5 buffer for 1 min (FIG. 21 and table 23).
# T1 sequence (chain, as listed by the source): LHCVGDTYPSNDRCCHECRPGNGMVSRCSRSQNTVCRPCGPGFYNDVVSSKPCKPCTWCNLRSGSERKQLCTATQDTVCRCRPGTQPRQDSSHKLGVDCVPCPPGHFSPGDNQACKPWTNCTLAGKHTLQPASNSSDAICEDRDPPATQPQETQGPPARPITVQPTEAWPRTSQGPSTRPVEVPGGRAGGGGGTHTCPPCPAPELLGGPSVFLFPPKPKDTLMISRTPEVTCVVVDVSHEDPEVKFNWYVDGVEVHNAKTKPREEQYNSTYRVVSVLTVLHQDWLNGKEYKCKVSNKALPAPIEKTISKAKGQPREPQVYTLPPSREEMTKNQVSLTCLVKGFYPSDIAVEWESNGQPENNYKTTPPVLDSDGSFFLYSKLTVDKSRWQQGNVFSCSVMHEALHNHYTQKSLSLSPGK
binder,measurement,value
"Fc-7H11 scFv/2H6 Fab (other, N-terminal Fabs removed by digestion; also called Fc-2H6 Fab/7H11 scFv; purified digestion product of Tetra-20) heavy 1: HTCPPCPAPEAAGGPSVFLFPPKPKDTLMISRTPEVTCVVVDVSHEDPEVQFKWYVDGVEVHNAKTKPREEQYNSTFRVVSVLTVLHQDWLNGKEYKCKVSNKALPAPIEKTISKTKGQPREPAVYTLPPSREEMTKNQVKLVCLVTGFYPSDIAVEWESSGQPENNYYTTPPMLDSDGSFSLVSWLNVDKSRWQQGNIFSCSVMHEALHNRFTQKSLSLSPGGGGGTQVQLVQSGAEVKKPGASVKVSCKASGYTFTRYYMHWVRQAPGQCLEWMGWIYPGEGSTKYAQKFQGRVTMTRDTSISTAYMELSRLRSDDTAVYYCAREYGNYDYWGQGTLVTVSSGGGGSGGGGSGGGGSDIVMTQSPDSLAVSLGERATINCKSSQSLLNSGNQKNYLAWYQQKPGQPPKLLIYGASTRESGVPDRFSGSGSGTDFTLTISSLQAEDVAVYYCQNDHSYPYTFGCGTKLEIL heavy 2: HTCPPCPAPEAAGGPSVFLFPPKPKDTLMISRTPEVTCVVVDVSHEDPEVKFNWYVDGVEVHNAKTKPREEQYNSTYRVVSVLTVLHQDWLNGKEYKCKVSNKALPAPIEKTISKAKGQPREPEVATFPPSRDELTKNQVTLVCLVTGFYPSDIAVEWESNGQPENNYKTDPPLLESDGSFALSSRLRVDKSRWQQGNVFSCSVMHEALHNHYTQKSLSLSPGGGGGTEVQLVESGGGLVQPGGSLRLSCAVSGYSITSDYAWNWIRQAPGKGLEWMGYISYSGSTAYNPSLKSRITISRDTSKNTFYLQMNSLRAEDTAVYYCARGPYNYLAYWGQGTLVTVSSASTKGPSVFPLAPSSKSTSGGTAALGCLVKDYFPEPVTVSWNSGALTSGVHTFPAVLQSSGLYSLSSVVTVPSSSLGTQTYICNVNHKPSNTKVDKKVEPKSC light: DIQLTQSPSSLSASVGDRVTITCRASESVDNYGISFMNWFQQKPGKAPKLLIYAASNQKSGVPSRFSGSGSGTDFTLTISSLQPEDFATYFCQQSKEVPLTFGQGTKVEIKRTVAAPSVFIFPPSDEQLKSGTASVVCLLNNFYPREAKVQWKVDNALQSGNSQESVTEQDSKDSTYSLSSTLTLSKADYEKHKVYACEVTHQGLSSPVTKSFNRGEC",response units,100 RU
